Each block holds one binder with its values, some of them ahead of it.
Key:
[1] = biological target: T1, mouse FcγRII extracellular domain, C-terminal His tag (mouse, UniProt P08101 30-210); experiment: SPR (Biacore T200), antibody captured on Protein L, mFcγR analyte
T1 construct: also called mFcγRII; mFcgRII
T1 sequence: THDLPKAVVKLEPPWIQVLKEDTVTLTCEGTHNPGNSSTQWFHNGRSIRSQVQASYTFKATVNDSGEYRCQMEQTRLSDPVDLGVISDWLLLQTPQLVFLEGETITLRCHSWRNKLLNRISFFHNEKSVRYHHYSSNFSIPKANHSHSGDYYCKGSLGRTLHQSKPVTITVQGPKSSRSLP

[2] = biological target: T2, mouse FcγRIII extracellular domain, C-terminal His tag (mouse, UniProt P08508 31-215); experiment: as above
T2 construct: also called mFcγRIII; mFcgRIII
T2 chain: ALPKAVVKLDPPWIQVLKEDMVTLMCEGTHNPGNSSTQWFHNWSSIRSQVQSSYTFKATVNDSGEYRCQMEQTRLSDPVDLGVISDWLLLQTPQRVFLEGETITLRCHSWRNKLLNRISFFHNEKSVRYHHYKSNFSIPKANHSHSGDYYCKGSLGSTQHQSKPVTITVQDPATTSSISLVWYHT

B1: H237-MB826/MRAL-k0 (antibody, mouse IgG1, kappa)
heavy: QVQLQESGPGLVKPSETLSLTCAVSGHSISHDHAWSWVRQPPGEGLEWIGFISYSGITNYNPSLQGRVTISRDNSKNTLYLQMNSLRAEDTAVYYCARSLARTTAMDYWGEGTLVTVSSAKTTPPSVYPLAPGSAAQTNSMVTLGCLVKGYFPEPVTVTWNSGSLSSGVHTFPAVLQSDLYTLSSSVTVPSSTWPSETVTCNVAHPASSTKVDKKIVPRDCGCKPCICEPNEVELVFIFPPKPKDVLTITLTPKVTCVVVDISKDDPEVQFSWFVDDVEVHTAQTQPREEQFNSTFRSVSELPIMHQDWLNGKEFKCRVNSAGFPAFIEKTISKTKGRPKAPQVYTIPPPKEQMAKDKVSLTCMITDFFPEDITVEWQWNGQPAENYKNTQPIMDTDGSYFVYSKLNVQKSNWEAGNTFTCSVLHEGLHNHHTEKSLSHSPGK
light: not shown
notes: copies: 2 + 2
Kd [1]: 11.4 nM
relative mFcγRII-binding activity (mIgG1 = 1) [1]: 18.5 fold vs H237-mIgG1/MRAL-k0
Kd [2]: 829 nM
relative mFcγRIII-binding activity (mIgG1 = 1) [2]: 0.3 fold vs H237-mIgG1/MRAL-k0

B4: H237-MB827/MRAL-k0 (antibody, mouse IgG1, kappa)
heavy: QVQLQESGPGLVKPSETLSLTCAVSGHSISHDHAWSWVRQPPGEGLEWIGFISYSGITNYNPSLQGRVTISRDNSKNTLYLQMNSLRAEDTAVYYCARSLARTTAMDYWGEGTLVTVSSAKTTPPSVYPLAPGSAAQTNSMVTLGCLVKGYFPEPVTVTWNSGSLSSGVHTFPAVLQSDLYTLSSSVTVPSSTWPSETVTCNVAHPASSTKVDKKIVPRDCGCKPCICEPNEVELVFIFPPKPKDVLTITLTPKVTCVVVDISKDDPEVQFSWFVDDVEVHTAQTQPREEQFNSTFRSVSELPIMHQDWLNGKEFKCRVNSAGFPAYIEKTISKTKGRPKAPQVYTIPPPKEQMAKDKVSLTCMITDFFPEDITVEWQWNGQPAENYKNTQPIMDTDGSYFVYSKLNVQKSNWEAGNTFTCSVLHEGLHNHHTEKSLSHSPGK
light: not shown
notes: copies: 2 + 2
Kd [1]: 9.77 nM
relative mFcγRII-binding activity (mIgG1 = 1) [1]: 21.5 fold vs H237-mIgG1/MRAL-k0
Kd [2]: 744 nM
relative mFcγRIII-binding activity (mIgG1 = 1) [2]: 0.4 fold vs H237-mIgG1/MRAL-k0

B7: H237-MB831/MRAL-k0 (antibody, mouse IgG1, kappa)
heavy: QVQLQESGPGLVKPSETLSLTCAVSGHSISHDHAWSWVRQPPGEGLEWIGFISYSGITNYNPSLQGRVTISRDNSKNTLYLQMNSLRAEDTAVYYCARSLARTTAMDYWGEGTLVTVSSAKTTPPSVYPLAPGSAAQTNSMVTLGCLVKGYFPEPVTVTWNSGSLSSGVHTFPAVLQSDLYTLSSSVTVPSSTWPSETVTCNVAHPASSTKVDKKIVPRDCGCKPCICEPNEVELVFIFPPKPKDVLTITLTPKVTCVVVDISKDDPEVQFSWFVDDVEVHTAQTQPREEQFNSTFRSVSELPIMHQDWLNGKEFKCRVNSAAFPAFIERTISKTKGRPKAPQVYTIPPPKEQMAKDKVSLTCMITDFFPEDITVEWQWNGQPAENYKNTQPIMDTDGSYFVYSKLNVQKSNWEAGNTFTCSVLHEGLHNHHTEKSLSHSPGK
light: not shown
notes: copies: 2 + 2
Kd [1]: 9.4 nM
relative mFcγRII-binding activity (mIgG1 = 1) [1]: 22.3 fold vs H237-mIgG1/MRAL-k0
Kd [2]: 716 nM
relative mFcγRIII-binding activity (mIgG1 = 1) [2]: 0.4 fold vs H237-mIgG1/MRAL-k0

B9: H237-MB834/MRAL-k0 (antibody, mouse IgG1, kappa)
heavy: QVQLQESGPGLVKPSETLSLTCAVSGHSISHDHAWSWVRQPPGEGLEWIGFISYSGITNYNPSLQGRVTISRDNSKNTLYLQMNSLRAEDTAVYYCARSLARTTAMDYWGEGTLVTVSSAKTTPPSVYPLAPGSAAQTNSMVTLGCLVKGYFPEPVTVTWNSGSLSSGVHTFPAVLQSDLYTLSSSVTVPSSTWPSETVTCNVAHPASSTKVDKKIVPRDCGCKPCICEPNEVELVFIFPPKPKDVLTITLTPKVTCVVVDISKDDPEVQFSWFVDDVEVHTAQTQPREEQFNSTFRSVSELPIMHQDWLNGKEFKCRVNSAAFPAPIYRTISKTKGRPKAPQVYTIPPPKEQMAKDKVSLTCMITDFFPEDITVEWQWNGQPAENYKNTQPIMDTDGSYFVYSKLNVQKSNWEAGNTFTCSVLHEGLHNHHTEKSLSHSPGK
light: not shown
notes: copies: 2 + 2
Kd [1]: 12.4 nM
relative mFcγRII-binding activity (mIgG1 = 1) [1]: 17 fold vs H237-mIgG1/MRAL-k0
Kd [2]: 976 nM
relative mFcγRIII-binding activity (mIgG1 = 1) [2]: 0.3 fold vs H237-mIgG1/MRAL-k0

Stronger by Kd [1], values ahead:

Kd [1]: 7.4 nM
relative mFcγRII-binding activity (mIgG1 = 1) [1]: 28.4 fold vs H237-mIgG1/MRAL-k0
Kd [2]: 571 nM
relative mFcγRIII-binding activity (mIgG1 = 1) [2]: 0.5 fold vs H237-mIgG1/MRAL-k0
B2: H237-MB828/MRAL-k0 (antibody, mouse IgG1, kappa)
heavy: QVQLQESGPGLVKPSETLSLTCAVSGHSISHDHAWSWVRQPPGEGLEWIGFISYSGITNYNPSLQGRVTISRDNSKNTLYLQMNSLRAEDTAVYYCARSLARTTAMDYWGEGTLVTVSSAKTTPPSVYPLAPGSAAQTNSMVTLGCLVKGYFPEPVTVTWNSGSLSSGVHTFPAVLQSDLYTLSSSVTVPSSTWPSETVTCNVAHPASSTKVDKKIVPRDCGCKPCICEPNEVELVFIFPPKPKDVLTITLTPKVTCVVVDISKDDPEVQFSWFVDDVEVHTAQTQPREEQFNSTFRSVSELPIMHQDWLNGKEFKCRVNSAGFPAPIYKTISKTKGRPKAPQVYTIPPPKEQMAKDKVSLTCMITDFFPEDITVEWQWNGQPAENYKNTQPIMDTDGSYFVYSKLNVQKSNWEAGNTFTCSVLHEGLHNHHTEKSLSHSPGK
light: not shown
notes: copies: 2 + 2

Kd [1]: 4.81 nM
relative mFcγRII-binding activity (mIgG1 = 1) [1]: 43.7 fold vs H237-mIgG1/MRAL-k0
Kd [2]: 213 nM
relative mFcγRIII-binding activity (mIgG1 = 1) [2]: 1.3 fold vs H237-mIgG1/MRAL-k0
B3: H237-MB847/MRAL-k0 (antibody, mouse IgG1, kappa)
heavy: QVQLQESGPGLVKPSETLSLTCAVSGHSISHDHAWSWVRQPPGEGLEWIGFISYSGITNYNPSLQGRVTISRDNSKNTLYLQMNSLRAEDTAVYYCARSLARTTAMDYWGEGTLVTVSSAKTTPPSVYPLAPGSAAQTNSMVTLGCLVKGYFPEPVTVTWNSGSLSSGVHTFPAVLQSDLYTLSSSVTVPSSTWPSETVTCNVAHPASSTKVDKKIVPRDCGCKPCICEPNEVELVFIFPPKPKDVLTITLTPKVTCVVVDISKDDPEVQFSWFVDDVEVHTAQTQPREELFNSTFRSVSELPIMHQDWLNGKEFKCRVNSDGFPAPIEKTISKTKGRPKAPQVYTIPPPKEQMAKDKVSLTCMITDFFPEDITVEWQWNGQPAENYKNTQPIMDTDGSYFVYSKLNVQKSNWEAGNTFTCSVLHEGLHNHHTEKSLSHSPGK
light: not shown
notes: copies: 2 + 2

Kd [1]: 6.22 nM
relative mFcγRII-binding activity (mIgG1 = 1) [1]: 33.8 fold vs H237-mIgG1/MRAL-k0
Kd [2]: 445 nM
relative mFcγRIII-binding activity (mIgG1 = 1) [2]: 0.6 fold vs H237-mIgG1/MRAL-k0
B5: H237-MB829/MRAL-k0 (antibody, mouse IgG1, kappa)
heavy: QVQLQESGPGLVKPSETLSLTCAVSGHSISHDHAWSWVRQPPGEGLEWIGFISYSGITNYNPSLQGRVTISRDNSKNTLYLQMNSLRAEDTAVYYCARSLARTTAMDYWGEGTLVTVSSAKTTPPSVYPLAPGSAAQTNSMVTLGCLVKGYFPEPVTVTWNSGSLSSGVHTFPAVLQSDLYTLSSSVTVPSSTWPSETVTCNVAHPASSTKVDKKIVPRDCGCKPCICEPNEVELVFIFPPKPKDVLTITLTPKVTCVVVDISKDDPEVQFSWFVDDVEVHTAQTQPREEQFNSTFRSVSELPIMHQDWLNGKEFKCRVNSAGFPAPIERTISKTKGRPKAPQVYTIPPPKEQMAKDKVSLTCMITDFFPEDITVEWQWNGQPAENYKNTQPIMDTDGSYFVYSKLNVQKSNWEAGNTFTCSVLHEGLHNHHTEKSLSHSPGK
light: not shown
notes: copies: 2 + 2

Kd [1]: 2.91 nM
relative mFcγRII-binding activity (mIgG1 = 1) [1]: 72.1 fold vs H237-mIgG1/MRAL-k0
Kd [2]: 133 nM
relative mFcγRIII-binding activity (mIgG1 = 1) [2]: 2.1 fold vs H237-mIgG1/MRAL-k0
B6: H237-MB846/MRAL-k0 (antibody, mouse IgG1, kappa)
heavy: QVQLQESGPGLVKPSETLSLTCAVSGHSISHDHAWSWVRQPPGEGLEWIGFISYSGITNYNPSLQGRVTISRDNSKNTLYLQMNSLRAEDTAVYYCARSLARTTAMDYWGEGTLVTVSSAKTTPPSVYPLAPGSAAQTNSMVTLGCLVKGYFPEPVTVTWNSGSLSSGVHTFPAVLQSDLYTLSSSVTVPSSTWPSETVTCNVAHPASSTKVDKKIVPRDCGCKPCICEPNEVELVFIFPPKPKDVLTITLTPKVTCVVVDISDDDPEVQFSWFVDDVEVHTAQTQPREEQFNSTFRSVSELPIMHQDWLNGKEFKCRVNSDGFPAPIEKTISKTKGRPKAPQVYTIPPPKEQMAKDKVSLTCMITDFFPEDITVEWQWNGQPAENYKNTQPIMDTDGSYFVYSKLNVQKSNWEAGNTFTCSVLHEGLHNHHTEKSLSHSPGK
light: not shown
notes: copies: 2 + 2

Kd [1]: 8 nM
relative mFcγRII-binding activity (mIgG1 = 1) [1]: 26.3 fold vs H237-mIgG1/MRAL-k0
Kd [2]: 401 nM
relative mFcγRIII-binding activity (mIgG1 = 1) [2]: 0.7 fold vs H237-mIgG1/MRAL-k0
B8: H237-MB835/MRAL-k0 (antibody, mouse IgG1, kappa)
heavy: QVQLQESGPGLVKPSETLSLTCAVSGHSISHDHAWSWVRQPPGEGLEWIGFISYSGITNYNPSLQGRVTISRDNSKNTLYLQMNSLRAEDTAVYYCARSLARTTAMDYWGEGTLVTVSSAKTTPPSVYPLAPGSAAQTNSMVTLGCLVKGYFPEPVTVTWNSGSLSSGVHTFPAVLQSDLYTLSSSVTVPSSTWPSETVTCNVAHPASSTKVDKKIVPRDCGCKPCICEPNEVELVFIFPPKPKDVLTITLTPKVTCVVVDISDDDPEVQFSWFVDDVEVHTAQTQPREEQFNSTFRSVSELPIMHQDWLNGKEFKCRVNSAAFPAPIEKTISKTKGRPKAPQVYTIPPPKEQMAKDKVSLTCMITDFFPEDITVEWQWNGQPAENYKNTQPIMDTDGSYFVYSKLNVQKSNWEAGNTFTCSVLHEGLHNHHTEKSLSHSPGK
light: not shown
notes: copies: 2 + 2

Kd [1]: 8.31 nM
relative mFcγRII-binding activity (mIgG1 = 1) [1]: 25.3 fold vs H237-mIgG1/MRAL-k0
Kd [2]: 630 nM
relative mFcγRIII-binding activity (mIgG1 = 1) [2]: 0.4 fold vs H237-mIgG1/MRAL-k0
B10: H237-MB833/MRAL-k0 (antibody, mouse IgG1, kappa)
heavy: QVQLQESGPGLVKPSETLSLTCAVSGHSISHDHAWSWVRQPPGEGLEWIGFISYSGITNYNPSLQGRVTISRDNSKNTLYLQMNSLRAEDTAVYYCARSLARTTAMDYWGEGTLVTVSSAKTTPPSVYPLAPGSAAQTNSMVTLGCLVKGYFPEPVTVTWNSGSLSSGVHTFPAVLQSDLYTLSSSVTVPSSTWPSETVTCNVAHPASSTKVDKKIVPRDCGCKPCICEPNEVELVFIFPPKPKDVLTITLTPKVTCVVVDISKDDPEVQFSWFVDDVEVHTAQTQPREEQFNSTFRSVSELPIMHQDWLNGKEFKCRVNSAAFPAYIERTISKTKGRPKAPQVYTIPPPKEQMAKDKVSLTCMITDFFPEDITVEWQWNGQPAENYKNTQPIMDTDGSYFVYSKLNVQKSNWEAGNTFTCSVLHEGLHNHHTEKSLSHSPGK
light: not shown
notes: copies: 2 + 2
